Test results reported in patent publication US20040266665A1.

Key:
[1] = molecular target: human thyroid stimulating hormone receptor (TSHR) (human) (UniProt P16473); experiment: cell-based or functional assay
[2] = molecular target: human thyroid stimulating hormone receptor (TSHR) (human) (UniProt P16473); experiment: receptor binding affinity; assay and reference not described (reference presumably wild type hTSH)

Row | hormone potency [1] | fold increase in binding affinity [2] | Vmax of cyclic AMP production in CHO-JP09 cells, compared to wild type TSH [1] | in vitro activity (cyclic AMP production in CHO-JP09 cells) over that of the α4K/wild type β heterodimer [1] | potency in stimulation of cyclic AMP production in CHO-JP09 cells, compared to wild type TSH [1] | Substance
1 | < 1300 fold | < 50000 fold |  |  |  | α4K/β3R hTSH analog (heterodimer of α4K mutant α subunit and β3R mutant TSH β subunit) (from UniProt P01215 25-116; P01222 21-132) (ligand)
2 |  |  | 1.5 fold | 3 to 4 fold | 200 fold | mutant TSH heterodimer comprising the α4K subunit (αQ13K+αE14K+αP16K+αQ20K) and a fusion protein of the TSH β subunit and the CTEP of hCG (from UniProt P0DN86 134-165) (ligand)
